According to PMC4428384, “Differences in conformational dynamics within the Hsp90 chaperone family reveal mechanistic insights” (Frontiers in Molecular Biosciences, 2014):

How the values were obtained:
[1] = molecular target: the molecule itself; experiment: FRET or BRET; subunit exchange, dimer to monomers: ATTO 488 and ATTO 550 labeled proteins combined (400 nM each), rapidly mixed 1:1 with unlabeled protein (20 μM) in a stopped-flow device, 480 nm excitation, 590 nm cut-off filter; no nucleotide (apo)
[2] = molecular target: the molecule itself; experiment: FRET or BRET; subunit exchange as in a1, in the presence of ADP
[3] = molecular target: the molecule itself; experiment: FRET or BRET; subunit exchange as in a1, in the presence of ATP

B1: hHsp90β-E20C,C366A,C412T,C521A,C564T,C589A,C590A, labeled with ATTO 488 or ATTO 550 (natural protein)
chain: not shown
modifications: ATTO 488 maleimide or ATTO 550 maleimide on the single cysteine (E20C)
notes: human Hsp90β; single cysteine variant with the natural cysteines replaced; Homodimeric protein; the rows are protomer with protomer
B1 showed a subunit exchange rate [1] of 0.016 s⁻¹, a subunit exchange rate [2] of 0.016 s⁻¹ and a subunit exchange rate [3] of 0.01 s⁻¹.
